Data as given in patent US20200002699 (published 2020).
Substitutions are numbered along the chain they refer to.

Columns and labels:
[1] = target: T1, alpha-thrombin (Homo sapiens, UniProt P00734;P00734 P00734:328-363,P00734:364-622); assay: filter; ±2.8; Fbmax 52.9; same buffer, 22 C
[2] = target: T1, alpha-thrombin; assay: filter; NB, little or no binding; same buffer, 22 C
[3] = target: T1, alpha-thrombin; assay: filter; ±4.6; Fbmax 95.6; same buffer, 22 C
[4] = target: T1, alpha-thrombin; assay: filter; ±1.9; Fbmax 74.5; same buffer, 22 C
[5] = target: T1, alpha-thrombin; assay: filter; ±0.4; Fbmax 63.5; same buffer, 22 C
[6] = target: T1, alpha-thrombin; assay: filter; ±0.2; Fbmax 92.3; 20 mM Tris pH 7.5, 150 mM NaCl, 2 mM MgSO4, 50 ug/mL BSA, 22 C
[7] = target: T1, alpha-thrombin; assay: filter; ±0.9; Fbmax 84.5; same buffer, 22 C
[8] = target: T1, alpha-thrombin; assay: BLI; ±0.002; kon 91.9e4 M-1 s-1, koff 4.12e-4 s-1; RNA immobilized on streptavidin sensor; 20 mM Tris pH 7.5, 150 mM NaCl, 2 mM MgSO4, 2 mg/mL BSA, 0.1% Tween-20
[9] = target: T1, alpha-thrombin; assay: filter; truncated form; 2 mM MgSO4 buffer
[10] = target: T1, alpha-thrombin; assay: filter; ±0.3; Fbmax 65.3; same buffer, 22 C
[11] = target: T1, alpha-thrombin; assay: filter; ±0.3; Fbmax 80.6; same buffer, 22 C

B1: Clone 10 (ssRNA)
RNA: GGAGACGGAAGGAUAACGAGCGCUUUGACACAAGAUACAAUAUAGUAAGUGACACCAAGCCCGG
- Kd [1]: 36.4 nM

B2: Clone 7 (ssRNA)
RNA: GGAGAGGGAAUGAUAACGAGCCCGAAGCUCGGAGAAGCACAGAAGCAAGUGACACAAAGCCCGG
- binding result [2]: no binding

B3: Clone 1 (ssRNA)
RNA: GGAGAGAGAAGGAGAACGAGCUGUUACUCACAAAAUAGCGAAGACUAAGUGACACAAAGCCCGG
- Kd [3]: 44.7 nM

B4: Clone 6 (ssRNA)
RNA: GGAGAGGGAAGGAGAACGAGCCGGGACACUAAGGAACAUAAAAGUUAAGUGACACAAAGCCCGG
- Kd [4]: 13.8 nM

B5: Clone 8 (ssRNA)
RNA: GGAGAGCGAAGAGAACGAGCGGGAUUGCACAAGAUAGCGUAGACUAAGUGACACAAAGCCCGG
- Kd [5]: 1.6 nM

B6: Clone 9 (ssRNA)
RNA: GGAGAGGGAAAGAGAACGAGCGGGUGUUCACAAGAUAGAGUAGACUAAGUGACACAAAGCCCGG
- Kd [6]: 1.4 nM

B7: Clone 5 (ssRNA)
RNA: GGAGAGGUAGGAGAACGAGCCUACCGUAAGAGAACGAGCAGACUCAAGUGACACAAAGCCCGG
- binding result [2]: no binding

B8: Clone 4 (ssRNA)
RNA: GGAGAGGGAAGGAGAACGGCUGCGGAUAACAAGAUAGCAAAGACUAAGUGACACAAAGCCCGG
- Kd [7]: 10 nM

B9: Truncated clone 9 (ssRNA)
RNA: GUGUUCACAAGAUAGAGUAGACUAAGUGACAC
- Kd [8]: 0.448 nM
- Kd [9]: 2 nM

B10: Clone 3 (ssRNA)
RNA: GGAGAGGGAAGGAGAACGAACCGGGACUCACAAGAUAGACAAUACUAAGUGACACAAAGCCCGG
- Kd [10]: 2.4 nM

B11: Clone 2 (ssRNA)
RNA: B10 RNA with G8U, G12U, A20G, G23C, A26C, C27G, U43A
- Kd [11]: 3.5 nM
